# From patent US20240158477A1 (BIODURO JIANGSU, published 2024)
# Read-outs that look alike come from different tables or passages of the source.
# Tests used:
# [1] = biological target: RBD-Fc (SARS-CoV-2 S protein amino acids 319-541 with human IgG1 Fc) (SARS-CoV-2; human, UniProt P0DTC2 319-541)
# [2] = biological target: T1, COVID-19 S.P. RBD (Cat. #40592-V08B, SB) (SARS-CoV-2, UniProt P0DTC2 319-541)
# [3] = biological target: SARS-CoV-2 S protein (wildtype) (SARS-CoV-2, UniProt P0DTC2 14-1273); experiment: cell-based or functional assay
# [4] = biological target: T1, COVID-19 S.P. RBD (Cat. #40592-V08B, SB); remark: listed apart in the source
Binder,Kd [2] [nM],further results
Fc tagged nanobody VHH60 (Fc fusion) EVQLVESGGGLVQPGGSLRLSCAASGRTFRVNLMGWFRQAPGKGRELVASINGFDDITYYPDSVEGRFTISRDNAKRMVYLQMNSLRAEDTAVYYCAAYDSDYDGRLFNYWGQGTQVTVSSGSGGGGSGGGGS,2.56,"EC50 (read off the curve) [1]: ~0.4 nM; IC50, authentic SARS-CoV-2 neutralization on Vero-E6 cells (viral RNA by RT-PCR) [3]: 1.53 nM; IC50, pseudovirus neutralization (luciferase activity in Caco-2 cells) [3]: 7.63 nM"
Fc tagged nanobody VHH79 (Fc fusion) EVQLVESGGGLVQPGGSLRLSCAASGFTSRNYFMGWFRQAPGKGRELVATINSLSSITYYPDSVEGRFTISRDNAKRMVYLQMNSLRAEDTAVYYCAVYTPTTGPGEGSYTPWHDYWGQGTQVTVSSGSGGGGSGGGGS,3.44,–
Fc tagged nanobody VHH35 (Fc fusion) EVQLVESGGGLVQPGGSLRLSCAASGSIYSFNFMGWFRQAPGKGRELVATINSFDDITYYPDSVEGRFTISRDNAKRMVYLQMNSLRAEDTAVYYCAVLGERTGISYGSAFDYWGQGTQVTVSSGSGGGGSGGGGS,–,Kd [4]: 0.535 nM
Fc tagged nanobody VHH43 (Fc fusion) EVQLVESGGGLVQPGGSLRLSCAASGFISDADIMGWFRQAPGKGRELVASINSYDSITYYPDSVEGRFTISRDNAKRMVYLQMNSLRAEDTAVYYCAVRVHSRDFSYWGQGTQVTVSSGSGGGGSGGGGS,1.44,–
Fc tagged nanobody VHH34 (Fc fusion) EVQLVESGGGLVQPGGSLRLSCAASGFIYSFNIMGWFRQAPGKGRELVASINWFSDITYYPDSVEGRFTISRDNAKRMVYLQMNSLRAEDTAVYYCAAYLLRGDDRYYATYSYWGQGTQVTVSSGSGGGGSGGGGS,2.79,–
Fc tagged nanobody VHH82 (Fc fusion) EVQLVESGGGLVQPGGSLRLSCAASGFIYSFNIMGWFRQAPGKGRELVASISSYDDITYYPDSVEGRFTISRDNAKRMVYLQMNSLRAEDTAVYYCAAYLLRGDDRYYATYSYWGQGTQVTVSSGSGGGGSGGGGS,2.29,–
Fc tagged nanobody VHH80 (Fc fusion) EVQLVESGGGLVQPGGSLRLSCAASGFISNFNLMGWFRQAPGKGRELVATINSFDDITYYPDSVEGRFTISRDNAKRMVYLQMNSLRAEDTAVYYCAAEVRSSLDYALWTSRRSAFSYWGQGTQVTVSSGSGGGGSGGGGS,4.27,–
